The target of test [1] is His-tagged recombinant human FcγRIIIb (human) (UniProt O75015). Put plainly: SPR; Biacore T200; His-tagged FcγR captured by an anti-His antibody on a CM5 chip; dilution series of antibody as analyte; 1:1 kinetic binding model; triplicate. In general terms: Surface plasmon resonance follows binding to a sensor surface in real time, without labels.
The target in test [2] is His-tagged recombinant human FcγRIIIa (158 V) (human). Described as above.

Several values for one entry are separate records, joined by “and”; a condition that tells them apart may be missing. Identical values can stand only once.

These results are taken from article PMC6834741.

As usually defined, the Kd is the equilibrium constant for the complex coming apart.

UniProt O75015, sequence (O75015 17-200): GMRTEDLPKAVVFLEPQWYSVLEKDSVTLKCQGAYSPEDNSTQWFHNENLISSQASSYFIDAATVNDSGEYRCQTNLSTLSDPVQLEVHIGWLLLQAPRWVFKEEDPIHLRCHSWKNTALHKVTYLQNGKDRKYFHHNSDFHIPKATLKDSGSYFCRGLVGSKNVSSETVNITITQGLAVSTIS

For the substance ABP 980 (antibody), the Kd in test [1] was 8.14 µM and 8.29 µM; in test [2], 0.0913 µM.

Regarding Trastuzumab (EU) (antibody), the dissociation constant Kd turned out to be 13.8 µM in test [1] and 0.193 µM in test [2].

For Trastuzumab (US) (antibody), the Kd in test [1] turned out to be 11.8 µM; in test [2], 0.146 µM.
